Measurements reported in patent US7811992B2, “Anti-infarction molecules” (Stasys Technologies, Inc., priority 2002, dated 2010).
Like-named read-outs stand apart in the source and are kept apart here. Square brackets hold non-standard residues; d marks the D form. Side chains are listed from the residue outwards. Ends that are not written are not given here. Peptide text beside a SMILES is read from it. * marks the point of attachment. Acetyl(1-adamantyl) = O=C(CC12CC3CC(CC(C3)C1)C2)*; Hyp = O=C(O)[C@@H]1C[C@@H](O)CN1; 2Thi = N[C@@H](Cc1cccs1)C(=O)O; Nicotinoyl = O=C(c1cccnc1)*; Cbz = O=C(OCc1ccccc1)*

Tests used:
[1] = target: T1, human angiotensin AT2 receptor (Homo sapiens, UniProt P50052); details: for % Inhibition ATII receptor: screened at 10 μM; for nH: reference data, Hill coefficient; for Activity/inhibition ATII binding assay: compounds screened at 10 μM, % inhibition of binding at the AT2 receptor; for inhibition at 10 µM: read-out: % Inhibition ATII receptor
T1 sequence (P50052 1-363): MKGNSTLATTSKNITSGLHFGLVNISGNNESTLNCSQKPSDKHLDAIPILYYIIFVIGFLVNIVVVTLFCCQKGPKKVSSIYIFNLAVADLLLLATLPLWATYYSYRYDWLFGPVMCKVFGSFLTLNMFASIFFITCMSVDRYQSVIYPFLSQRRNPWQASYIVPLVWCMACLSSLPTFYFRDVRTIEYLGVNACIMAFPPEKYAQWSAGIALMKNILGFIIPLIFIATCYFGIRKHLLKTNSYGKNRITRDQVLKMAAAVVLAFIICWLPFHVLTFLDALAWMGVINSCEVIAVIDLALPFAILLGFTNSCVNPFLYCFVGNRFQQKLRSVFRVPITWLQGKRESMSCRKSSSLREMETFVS
Experimental: HeLa cells stably transfected with a plasmid encoding the human angiotensin AT2 receptor were used to prepare membranes in modified Tris HCl pH 7.4 by standard techniques. […] Non-specific binding was estimated in the presence of 10 μM. […] Compounds were screened at 10 μM. The ATII binding studies were performed essentially like that disclosed in Whitebread, S. E. et al., Radioligand CGP42112A: a novel high affinity and high selective ligand for the characterization of angiotensin AT2 receptors.

[2] = test system: Inositol Triphosphate IP3; experiment: Receptor panel screen, ligand-receptor binding, FPAh 10 μM: Inositol Triphosphate IP3
From the text: (§1) For example, FPA was used in a screen of 150 receptors to determine which receptors FPA could interact with. One way of assessing FPA interactions is to look at the amount that FPA can modulate a given receptor relative to its natural ligand. Disclosed in tables 13 and 14 are ligand-receptor binding studies that are, for example, modulated by more than 20% (inhibition or excitation) by the human form of Fibrinopeptide-A (FPA-h).

[3] = test system: Potassium Channel [Ka]; experiment: Receptor panel screen, ligand-receptor binding, FPAh 10 μM: Potassium Channel [Ka]
From the text: as §1

[4] = target: T2, Bradykinin B1 (Homo sapiens, UniProt P46663); experiment: Receptor panel screen, ligand-receptor binding, FPAh 10 μM: Bradykinin B1
T2 sequence (P46663 1-353): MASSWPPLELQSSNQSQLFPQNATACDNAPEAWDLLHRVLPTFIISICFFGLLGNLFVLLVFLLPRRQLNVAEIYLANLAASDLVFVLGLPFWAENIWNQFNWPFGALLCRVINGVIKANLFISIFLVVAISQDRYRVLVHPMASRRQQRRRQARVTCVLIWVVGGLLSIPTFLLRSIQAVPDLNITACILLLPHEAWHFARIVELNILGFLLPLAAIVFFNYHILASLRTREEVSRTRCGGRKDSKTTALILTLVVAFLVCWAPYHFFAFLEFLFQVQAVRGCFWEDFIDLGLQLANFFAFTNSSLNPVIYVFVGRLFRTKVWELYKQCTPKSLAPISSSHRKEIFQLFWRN
From the text: as §1

[5] = target: Serotonin 5-HT 2a (Homo sapiens, UniProt P28223); experiment: Receptor panel screen, ligand-receptor binding, FPAh 10 μM: Serotonin 5-HT 2a
From the text: as §1

[6] = target: T3, Estrogen ERa (Homo sapiens, UniProt P03372); experiment: Receptor panel screen, ligand-receptor binding, FPAh 10 μM: Estrogen ERa
T3 sequence (P03372 1-595): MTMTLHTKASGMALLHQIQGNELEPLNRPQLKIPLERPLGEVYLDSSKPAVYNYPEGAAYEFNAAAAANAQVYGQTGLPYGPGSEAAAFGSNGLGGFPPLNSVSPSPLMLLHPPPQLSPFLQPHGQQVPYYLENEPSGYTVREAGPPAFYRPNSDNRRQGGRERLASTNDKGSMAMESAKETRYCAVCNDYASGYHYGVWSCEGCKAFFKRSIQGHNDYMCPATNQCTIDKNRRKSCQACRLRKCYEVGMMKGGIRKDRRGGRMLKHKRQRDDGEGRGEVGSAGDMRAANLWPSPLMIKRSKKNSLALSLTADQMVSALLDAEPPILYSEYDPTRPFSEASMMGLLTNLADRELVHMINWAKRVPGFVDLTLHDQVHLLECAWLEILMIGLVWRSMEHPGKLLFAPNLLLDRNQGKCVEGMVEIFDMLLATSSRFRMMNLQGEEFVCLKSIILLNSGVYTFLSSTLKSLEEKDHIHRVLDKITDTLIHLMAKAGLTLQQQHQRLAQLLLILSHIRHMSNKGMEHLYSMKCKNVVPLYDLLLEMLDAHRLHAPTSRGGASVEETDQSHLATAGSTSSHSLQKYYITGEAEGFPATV
From the text: as §1

[7] = test system: Vascular endothelial growth factor; experiment: Receptor panel screen, ligand-receptor binding, FPAh 10 μM: Vascular endothelial growth factor
From the text: as §1

[8] = test system: Glutamate AMPA; experiment: Receptor panel screen, ligand-receptor binding, FPAh 10 μM: Glutamate AMPA
From the text: as §1

[9] = test system: Cholecystokinin; experiment: Receptor panel screen, ligand-receptor binding, FPAh 10 μM: Cholecystokinin
From the text: as §1

[10] = target: T4, Thyrotropin Releasing Hormone (Homo sapiens, UniProt P34981); experiment: Receptor panel screen, ligand-receptor binding, FPAh 10 μM: Thyrotropin Releasing Hormone
T4 sequence (P34981 1-398): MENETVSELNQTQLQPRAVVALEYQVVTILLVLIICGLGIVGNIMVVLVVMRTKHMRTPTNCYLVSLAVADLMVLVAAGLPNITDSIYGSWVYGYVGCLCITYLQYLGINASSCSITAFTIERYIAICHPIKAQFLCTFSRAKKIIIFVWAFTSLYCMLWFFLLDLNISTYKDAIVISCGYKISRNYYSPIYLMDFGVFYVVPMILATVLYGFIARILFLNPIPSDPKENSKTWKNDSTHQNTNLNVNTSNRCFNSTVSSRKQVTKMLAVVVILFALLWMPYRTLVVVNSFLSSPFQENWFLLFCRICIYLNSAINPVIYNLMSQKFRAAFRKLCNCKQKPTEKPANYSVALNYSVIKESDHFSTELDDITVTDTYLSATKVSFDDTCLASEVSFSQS
From the text: as §1

Chain of Serotonin 5-HT 2a (P28223 whole entry): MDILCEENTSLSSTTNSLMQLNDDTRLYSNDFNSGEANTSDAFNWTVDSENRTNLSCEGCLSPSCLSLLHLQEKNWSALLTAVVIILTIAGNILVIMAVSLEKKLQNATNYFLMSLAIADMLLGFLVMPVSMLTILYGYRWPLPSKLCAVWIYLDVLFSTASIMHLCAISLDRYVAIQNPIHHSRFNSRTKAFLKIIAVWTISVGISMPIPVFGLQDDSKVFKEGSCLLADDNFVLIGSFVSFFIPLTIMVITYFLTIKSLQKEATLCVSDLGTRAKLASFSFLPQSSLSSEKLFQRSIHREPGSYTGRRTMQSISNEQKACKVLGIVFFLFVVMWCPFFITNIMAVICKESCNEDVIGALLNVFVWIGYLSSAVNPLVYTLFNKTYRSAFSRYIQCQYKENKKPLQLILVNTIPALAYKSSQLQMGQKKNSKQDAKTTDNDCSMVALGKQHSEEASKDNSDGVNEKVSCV

Compound	% Inhibition ATII receptor [1] [%]	Activity/inhibition ATII binding assay [1]	other results
VP059 (RPPGFS)	−12		
CC[C@H](C)[C@H](NC(=O)[C@@H]1CCCN1C(=O)[C@H](Cc1c[nH]cn1)NC(=O)[C@@H](NC(=O)[C@H](Cc1ccc(O)cc1)NC(=O)[C@@H](NC(=O)[C@H](CCCNC(=N)N)NC(=O)CNC)C(C)C)[C@@H](C)CC)C(=O)O [[Sar^1, Ile^8] Angiotensin II]			nH [1]: 1.0
N-Admantanecarbonyl-DArg0-HyP3, Thi5,8, DPhe7] Bradykinin		63%	
Arg-Pro-Pro (RPP) [Bradykinin (1-3)]		−2%	
DArg-Arg-Pro-Hyp-Gly-Igl-Ser-Dlgl-Oic-Arg (XRPXGXSXXR; D-residues; non-natural residues) [B9430]		70%	
N=C(N)NCCC[C@H](NC(=O)[C@H](Cc1cccs1)NC(=O)[C@@H](Cc1ccccc1)NC(=O)[C@H](CO)NC(=O)[C@H](Cc1cccs1)NC(=O)CNC(=O)[C@@H]1C[C@@H](O)CN1C(=O)[C@@H]1CCCN1C(=O)[C@H](CCCNC(=N)N)NC(=O)[C@@H](CCCNC(=N)N)NC(=O)CC12CC3CC(CC(C3)C1)C2)C(=O)O [VP046] ({Acetyl(1-adamantyl)}-[dR]RP[Hyp]G[2Thi]S[dF][2Thi]R-OH)			inhibition at 10 µM [1]: 61%
ADSGE GDFLAEGGGVR (ADSGEGDFLAEGGGVR) [FPA-h, synthesized human Fibrinopeptide-A]			Inhibited [2]: 33%; Inhibited [3]: 25%; Inhibited [4]: 24%; Stimulated [5]: 21%; Inhibited [6]: 33%; Stimulated [7]: 22%; Stimulated [8]: 30%; Inhibited [9]: 33%; Inhibited [10]: 23%
VP042 (XRPXGXSXXR; D-residues; non-natural residues)	29		
N-Adamantaneacetyl-DArg-Arg-Pro-Hyp-Gly-Thi-Ser-DPhe-Thi-Arg		61%	
PPGFSPFR [Bradykinin (2-9)]		−13%	
N=C(N)NCCC[C@H](NC(=O)[C@H](Cc1cccs1)NC(=O)[C@@H](Cc1ccccc1)NC(=O)[C@H](CO)NC(=O)[C@H](Cc1cccs1)NC(=O)CNC(=O)[C@@H]1CCCN1C(=O)[C@@H]1CCCN1C(=O)[C@@H](N)CCCNC(=N)N)C(=O)O [VP045] (H-RPPG[2Thi]S[dF][2Thi]R-OH)			inhibition at 10 µM [1]: 53%
VP058 (RPPGF)	1		
VP061 (PPGFSP)	−6		
(DArg-Arg-Pro-Hyp-Gly-Thi-Ser-DTic-Oic-Arg (XRPXGXSXXR; D-residues; non-natural residues) [Hoe 140, reference compound]		29%	
NC(N)=NCCC[C@H](NC(=O)[C@H](Cc1ccccc1)NC(=O)[C@@H]1CCCN1C(=O)[C@H](CO)NC(=O)[C@H](Cc1ccccc1)NC(=O)CNC(=O)[C@@H]1CCCN1C(=O)[C@@H]1CCCN1C(=O)[C@@H](N)CCCN=C(N)N)C(=O)O [Bradykinin]			Activity/inhibition ATII binding assay ([1]; 10 µM): 12%
VP052 (RPPGFSPYR)	−1		
CC[C@H](C)[C@H](NC(=O)[C@@H]1CCCN1C(=O)[C@H](Cc1c[nH]cn1)NC(=O)[C@H](CCCCNC(=O)[C@H](CCCNC(=N)N)NC(=O)OCc1ccccc1)NC(=O)[C@H](Cc1ccc(O)cc1)NC(=O)c1cccnc1)C(=O)O [CGP-42112A, nicotinic acid-Tyr-(N-benzoylcarbonyl-Arg)Lys-His-Pro-Ile-OH, reference compound] (Nicotinoyl-YK([Arg-Cbz])HPI-OH)			nH [1]: 1.1
Arg-Pro-Pro-Gly-Phe-Ser-DPhe-Phe-Arg (RPPGFS[dF]FR) [DPhe7] Bradykinin]		60 9%	
DArg-Arg-Pro-Hyp-Gly-Thi-Ser-Dlgl Oic-Arg (XRPXGXSXXR; D-residues; non-natural residues) [B9340]		35%	
PPGFSP [Bradykinin (2-7)]		−6%	
VP057 (RPP)	−2		
Arg-Pro-Pro-Gly-Phe (RPPGF) [Bradykinin (1-5)]		1%	
CNCC(=O)N[C@@H](CCCN=C(N)N)C(=O)N[C@H](C(=O)N[C@@H](Cc1ccc(O)cc1)C(=O)N[C@H](C(=O)N[C@@H](Cc1cnc[nH]1)C(=O)N1CCC[C@H]1C(=O)N[C@@H](C)C(=O)O)C(C)C)C(C)C [Saralasin]			nH [1]: 0.9
Arg-Pro-Pro-Gly-Thi-Ser-DPhe-Thi-Arg (RPPG[2Thi]S[dF][2Thi]R) [[Thi5,8,DPhe7] Bradykinin]		53%	
VP063 (XRPXGXSXXR; D-residues; non-natural residues)	35		
VP043 (RPPGFS[dF]FR)	9		
VP062 (PPGFSPFR)	−13		
VP064 (XRPXGXSXXR; D-residues; non-natural residues)	70		
RPPGFS [Bradykinin (1-6)]		−12%	
